Among the data in a protein production outcome set (Wang et al. 2014) are protein production values, retold here.

This data set can be described thus: label from the status in PepcDB records.
“MTRPIGIYEKATPKHFNWLERLQFAKELGFDFVELSIDESDERLARLEWSKEERLELVKAIFETGVRVPTITFSGHRRFPMGSNNPEKEARAMDMMKKCIVFAQDIGIRNIQLAGYDVYYEEKSPETRARFIKNLRQACTWAEEAQVILSIEIMDDPFMNSIEKYLAVEKEIDSPYLFVYPDTGNVSAWHNDLWSEFYNGHRSIAALHIKDTYAVTETSKGQFRDVPFGQGCVDWEEMFAVIKKTNYNGPFLIEMWSENCETVEETRAAIKEAQDFLYPLMEKTGVK”: the protein production entry was “failed”. As to “RNLEMIDMQIAGTEQLTAFVTFAAANIGAPEQWLTQYYGNLIERKELFGYWHKGKLLAAGECRLFDQYQTEYADLGMIVAQSNRGQGIAKKVLTFLTKHAATQGLTSICSTESNNVAAQKAIAHAGFTSAHRIVQFEFKHA”, the protein production entry was “failed”. For “MSEAERAGASRQDKSGRLLAGRYRLGDVLGRGGMGTVWRAEDETLGRTVAVKELRFPTSIDEDEKRRLITRTLREAKAIARIRNNSAVTVFDVVDEDNRPWIVMELVEGKSLAEAIREDGLLEPKRAAEVGLAILDVLRAAHREGILHRDVKPSNVLIAEDGRVVLTDFGIAQVEGDPSITSTGMLVGAPSYISPERARGHKPGPAADLWSLGGLLYASVEGVPPYDKGSAIATLTAVMTEPLEEPKNAGPLRSVIYGLLAKDPEQRLDDAGARAMLNEVLHAPQPKEPEPVDATRVVALPPVPEEGTGKGSSGGSGAKRGEEAADRFRGALRSVRKAAGAATASAAARAKSGGTDVSGGTGAAGAGTSSAGSSASASAPAPGKPGAAAVGKPNPSSAGKPGSSAAATPAGTGSGVGQGTAVGGGGRESAVVGSNSGPVKPSSGWPVVPEPDRPPRSVPRAPLTDVVPRRTLVIVAVVVVLAVLGVVLALTLGGDDGSSKDNKGSSDTKAAASSGTSSGTTAGSSGTPKAGGSGSGSGGTHTDSGSKDNTGTGSDEQETDDSSSAGTASGSGGSDDSGSGSGDSSVKTYKSSQGFSIGLPKGWKYQSTGAAGARFTGPDGQKLLVGWTTTPKDDPVADWKNQEQYMVRSQYKRIRIEQVDYRGWNTADWEFTYTEGGTKYRSIDRGFVVNAHQGYALMYTAKASEWDSDLRKDTWQTLAKTFQPKS” the value was “failed”. As for “MEFYEVIKKRKSIKKFEQTAIDRDKLLKIIDMAMRAPSWKNKTPYKFIVVESDKLKLDIANAIENKTSAASEAVLNSPMTIVAVANPEESGDVSGKEIYLIDTAIAMEHIVLGATDEGYGTCWIAAFNENKIKEALKIPDNLRVVALTPLGVPKDSAEDEPHHPKKDMDEYLYIDKWGTSFMESNVKILEKN”, the protein production entry is on record as “not failed”. In the case of “MAAKICNRKNCKRSVQKMRIRSLLIILTIGLLLVNAICVSALGQTSESIARGDVYFGLMRYRDAIAWYKLDSTKAEAQWKIARAYVCYGDNAVPAEKEYNFRNAVRAANKCIELEETNANGHTWLAAALGNTAMYEGSKTKVRLCTQIKKELNRAIALNPKDDIAYSILGSFYREIGNISWLEKQLAMTFIGKIPDGTYEDSEKAFAKAIALNPTIMRHWYEQGLLYKYWNKNEQAIASFNKAKACPVFVSSDNKRLAAIEVYLKNLQ”, the protein production entry is “failed”. Regarding “MSELNKEMTLLPPPELVQYVGGDFKKVGKEFLKHFIQIGALKSNEKVLDVGCGVGRMAVPLMNYLNDDGAYYGFDLFKDGITWCQNNISTMRNNFHFEHVDIYNQFYNPEGKEDASQYRFPYEDGTFDFIFLTSVFTHLLPKELEHYVSEIVRVLKKDGRCFITFFLINPESSYYLNAGQSTLGFYHRIENCYVVNKDIPNFAVAYPETDICNLLNKYGLEIINKPHYGLWCGRHEYTSYQDIVLTKKSFLEHHHHHH”, the protein production entry is reported as “not failed”.

For “MEKIERLRSAFDEAGIDGILLTNEHSRRYMANFTGTAGVVLISKKRAQFITDFRYVEQASKQAVGYEIVQHAGLIIDEVAKQVKELGIQKLGFEQDTLTYSSYSAHKEAIDAEFIPTSGLVEKLRLIKTDSEIKILKEAAQIADAAFEHILSFIRPGVSEIEVSNELEFFMRKQGATSSSFDIIVASGLRSALPHGVASEKVIETGDFVTLDFGAYYKGYCSDITRTIAVGEPSDKLKEIYNIVLEAQLRGVNGIKAGLTGREADALTRDYITEKGYGEYFGHSTGHGIGLEIHEAPGLAFRSDTVLEPGMAVTVEPGIYIPGIGGVRIEDDIIVTSEGNEVITKSPKELIIL”, the protein production result was “not failed”.

For “MEAITYKYYQEKYYGNILNEEDFKRYEKKARRKLSSFTFGRIDCLQNVPDEVGDCICDMAEKISLEESKENFSGIVSESTDGHSVTFEKKQSIEQMNKELYLIAVGYLNNTGLLYGGVCLCSTARNW”, the protein production result is recorded as “failed”.

In the case of “MHNHNNRLVITPGEPAGVGPDLAITLAQQDWPVELVVCADPALLLARASQLNLPLQLREYQADQPAIAQQAGSLTILPVKTAVNVVPGKLDVGNSHYVVETLAKACDGAISGEFAALVTGPVQKSIINDAGIPFIGHTEFFADRSHCQRVVMMLATEELRVALATTHLPLLAVPGAITQASLHEVITILDNDLKTKFGITQPQIYVCGLNPHAGEGGHMGHEEIDTIIPALNTLRQQGINLIGPLPADTLFQPKYLQHADAVLAMYHDQGLPVLKYQGFGRAVNITLGLPFIRTSVDHGTALELAATGTADVGSFITALNLAIKMINNSNE”, the protein production result is recorded as “not failed”. Turning to “MSLRGSQLGTSRGLMLGGIDLAPVLMVLGLLLSGLGLSMLAPALVDLVVENRDWRAFLGSSVITLFCGMMLTLANWRMPLRFNIRQGFLMTALAWLTMSLFGSMPFMLATTGLDFAGAFFESVSGLTTTGATVISGLEHQPPGILFWRCLLHWIGGIGIIGMAIALLPALRVGGMQLFRTESSDTSEKGMNRIGELGLAITAVYLTLTVVIALGYIAVGMSVFDAICHAFGTVSTGGFSNWDTSLGHLDAAGLWMSTVGMMLGAMPFVLYVQVARGRPMDVVRDPQVQALTGFLVACWLVMALWQSLENGRPFLDALTASAFNITSVVTTTGYASEDYTLWGGFPQLFFFMITFAGGCTGSTSGGIKMFRYQVAYKVLSANIRRRYMPNAVIVSTYGGRAIDEDVAVSVVLFFFATGATTAIIALALTMVGLDWVTALTGTAAAIANVGPGLGTIVGPAGNYATLPDSAKWLLSLAMLMGRLEFFTLLVLFSRDFWKS”, the protein production result is given as “failed”.

In the case of “MTYLQTTADFYAEVAQTPEVGLCCVQSSPLQLPGLVIPAVMQEMNYGCGSTVHPNELGNKSKVLYVGVGGGLEALQFAYFCRQPGAVIAVDPVEAMRQAAQRNLQLAAEKNDWFSVDFVDIRAGDAFTLPVPDNSVDVVAQNCLFNIFEPEDLSRALKEAYRVLKPHGRLIMSDPIAARPIPQHLRQDERLRAMCLSGALTYAEYIQHLIDTGFGQIEIRARRPYRLLDSVTYKLDENLLLESLDSVSFKVPIPSDGACVFTGKTAIYAGSDPLFDDQAGHILQQGVPSAVCDKTALNLGSTYPNKILITDSTWYYDGGGCC”, the protein production result is reported as “failed”. As to “MSVIATILAYAGLAIVSTVVVWKGSELLESSTEKLSGYYQLPPLVQGSIVLAVGSSFPELSTAVLSAALHGDFELGVAAVVGSALFNILMIPALAGLWAEERLESTRDLIYKETQFYLISIVVLLLMFSFAVIYNPLAGGTDAQVGGVTRGLALLPLALYAVYVYLQYQDTRDHQPEAPPEDIHLPKQGTRLVGSLLIILIGVEGLIRSAVAFGDIFGTPSFLWGITVVAAGTSVPDAFVSIRASRAGNPVTSVANVLGSNIFDLLVCIPAAALVAGTVAINYSVGMPMMGVLSLATLIVLLTMRSEMVLTTPEAWGLIALYLAFVVWMGAETVGTVDLIPHLPPPAHTP”, the protein production result is given as “failed”. Turning to “MMVGLINAIPVANKDEYKNVGVYIEHRGDEIKRSSLEMIGIGKQLARKINEKLLCVVIGDKVDGIAKEVGEYGCDIVLAAESPDLAEYRTMPYAQIIGDYIAEYKPNIFLLAATRNGRDLASRIAVKERTGITADCTVLDVDENRTLLANRPTYGESTLAEILCRNHRPQMATARPGTFTPAEKEKDHKYEIVKKKVNVDKNMLKKQIIKFIPKKATDLTAAKIVVAGGLGLGGPDGFKLLQDLADLIGGAVGSSRPPVDLGWITRDHQVGQTGQAVRPDLYVAVGISGKPQHVAGMKFSKVIISINKDPNAEINKISDYIIVEDYRKAVPALIDAIKNFGKQKVAEAQKA”, the protein production result is on record as “failed”. “MAAVSPAAAARSAAAAVRDGGEMVRRMTPQDLDRIAQAVAEAEKTTAGEIFCVLTPEVSDYRETPLVWAAASALVLPAGALLAGFRPEMLTRLFGGWSVGHQAAHDGAILSALSTYIVLQLVVFVVAALVVSIPPVRRALTPGALKTARVKRAAMEQFLSHGLHVTRDRTGVLIFAALAEHRVEVIADEGIYKAAPNAVWNEVVADLVAGLKRGKIADGFVAAVARTGGILAAHVPPRGDDRNELSDGLTILPRR”: the protein production entry is on record as “failed”.
